In patent US20220372577, “ANALYTE DETECTION METHOD” (IMPERIAL COLLEGE OF SCIENCE, TECHNOLOGY AND MEDICINE, published 2022):

Molecular target: alpha-thrombin (UniProt P00734;P00734 P00734:328-363,P00734:364-622)
Experiment: binding in 5% human serum, 0.1-100 nM thrombin, 30 pM MB-Carrier; comparable to 0.1 M KCl

AGGTCGCCGCCCTCCAACGGTTGGTGTGGTTGG (structured_DNA, internal FAM on T13; 3' DABCYL) [TBA-embedded molecular beacon on lambda-DNA carrier (MB-Carrier)]
binding result: binds
